Measured values from paper doi:10.1101/2022.05.14.491971.

Target: Mab3862, antitoxin of the type 2 TA class of Mycobacterium abscessus (Mycobacterium abscessus (ATCC 19977))
Experiment: crystal structure

## Mab3862, antitoxin of the type 2 TA class of Mycobacterium abscessus (natural protein)
  stoichiometry N: 2
